Assay [1] has as its target HXBc2. Description: ELISA.
In assay [2] the target is gp41 MPER peptide (residues 657 to 669 of gp41) linked to a C-terminal C9 tag. Nature of the assay: SPR. On the technique in general: Surface plasmon resonance follows binding to a sensor surface in real time, without labels.

Some results are limits rather than exact numbers.

B1: gHC+LC (antibody, V domains shown)
VH: not shown
VL: EIVLTQSPGTLSLSPGETAIISCRTSQYGSLAWYQQRPGQAPRLVIYSGSTRAAGIPDRFSGSRWGPDYNLTISNLESGDFGVYYCQQYEFFGQGTKVQVDI
For the molecule B1, the response in assay [1] was half-maximal at 21.4 µg/mL (EC50).

B2: 2F5 wild-type IgG (antibody, V domains shown)
VH: RITLKESGPPLVKPTQTLTLTCSFSGFSLSDFGVGVGWIRQPPGKALEWLAIIYSDDDKRYSPSLNTRLTITKDTSKNQVVLVMTRVSPVDTATYFCAHRRGPTTLFGVPIARGPVNAMDVWGQGITVTISS
VL: ALQLTQSPSSLSASVGDRITITCRASQGVTSALAWYRQKPGSPPQLLIYDASSLESGVPSRFSGSGSGTEFTLTISTLRPEDFATYYCQQLHFYPHTFGGGTRVDVRR
For B2, in assay [2], the Kd (usually a measure of binding affinity in units of concentration) is 9.5 nM.

B3: HC+gLC (antibody, V domains shown)
VH: QVQLVQSGGQMKKPGESMRISCRASGYEFIDCTLNWIRLAPGKRPEWMGWLKPRGGAVNYARPLQGRVTMTRDVYSDTAFLELRSLTVDDTAVYFCTRGKNCDYNWDFEHWGRGTPVIVSS
VL: EIVLTQSPATLSLSPGERATLSCRASQYSVSSYLAWYQQKPGQAPRLLIYDASNRATGIPARFSGSGSGRDFTLTISSLEPEDFAVYYCQQFGQGTKLEIK
As for B3, in assay [1], a half-maximal effect (EC50) was put at 2.14 µg/mL.

B4: gHC+gLC (antibody, V domains shown)
VH: not shown
VL: B3 VL
As for B4, the concentration for a half-maximal effect (EC50) (commonly the concentration that produces a half-maximal response) in assay [1] is over 50 µg/mL.

Values taken from US20160009789A1 (published 2016).
